Test results from doi:10.64898/2025.12.31.697154.
Like-named read-outs stand apart in the source and are kept apart here.

What was measured:
Experiment in all cases: FRET
[1] = target: OmSMAX1-D1M domain (Orobanche minor OF MAX2 1, D1M domain) (Orobanche minor)
[2] = target: OmSMAX1-D1M domain (Orobanche minor OF MAX2 1, D1M domain) (Orobanche minor); remark: listed apart in the source
[3] = target: OmSMAX1-D1M domain (Orobanche minor OF MAX2 1, D1M domain) (Orobanche minor); remark: listed apart in the source
[4] = target: OmSMAX1-D1M domain (Orobanche minor OF MAX2 1, D1M domain) (Orobanche minor); remark: listed apart in the source

EC50 [1] [µM]	EC50 [2] [µM]	EC50 [3] [µM]	EC50 [4] [µM]	Substance
0.18	231	–	–	OmKAI2d3 (Orobanche minor divergent 2 receptor d3)
–	0.15	231	–	OmKAI2d4 (Orobanche minor divergent 2 receptor d4)
–	202	–	–	OmKAI2d9 (Orobanche minor divergent 2 receptor d9)
–	133	–	209	OmKAI2d10 (Orobanche minor divergent 2 receptor d10)
